Measured values reported in patent publication US20060204492A1 (published 2006).

How the values were obtained:
[1] = target: T1, integrin αvβ3, purified from human placenta (human, UniProt P06756 31-1048; P05106 27-788); experiment: SPR (BIAcore), purified Fab over immobilized αvβ3
T1 construct: mature; Native heterodimer, immobilized on ELISA plates or on the BIAcore chip; biotinylated in capture lift and capture ELISA screens; also called αvβ3 receptor; vitronectin receptor

[2] = target: T1, integrin αvβ3, purified from human …; experiment: SPR (BIAcore), purified Fab over immobilized αvβ3; remark: listed apart in the source
Protocol: The affinities of select variants were further characterized by utilizing surface plasmon resonance (BIAcore) to measure the association and dissociation rates of purified Fab with immobilized αᵥβ₃. […] To obtain association rate constants (kₒₙ), the binding rate at five different Fab concentrations, ranging from 5-40 μg/ml in 50 mM Tris-HCl, pH 7.4, 100 mM NaCl, 2 mM CaCl₂, and 1 mM MgCl₂, was determined at a flow rate of 10 μl/min. Dissociation rate constants (koff) were the average of five measurements obtained by analyzing the dissociation phase at an increased flow rate (40 μl/min). Sensorgrams were analyzed with the BIAevaluation 2.1 program (Pharmacia). Residual Fab was removed after each measurement with 10 mM HCl, 2 mM CaCl₂ and 1 mM MgCl₂.

T1 sequence (P06756 31-1048, form in doubt, chain 1 of 2): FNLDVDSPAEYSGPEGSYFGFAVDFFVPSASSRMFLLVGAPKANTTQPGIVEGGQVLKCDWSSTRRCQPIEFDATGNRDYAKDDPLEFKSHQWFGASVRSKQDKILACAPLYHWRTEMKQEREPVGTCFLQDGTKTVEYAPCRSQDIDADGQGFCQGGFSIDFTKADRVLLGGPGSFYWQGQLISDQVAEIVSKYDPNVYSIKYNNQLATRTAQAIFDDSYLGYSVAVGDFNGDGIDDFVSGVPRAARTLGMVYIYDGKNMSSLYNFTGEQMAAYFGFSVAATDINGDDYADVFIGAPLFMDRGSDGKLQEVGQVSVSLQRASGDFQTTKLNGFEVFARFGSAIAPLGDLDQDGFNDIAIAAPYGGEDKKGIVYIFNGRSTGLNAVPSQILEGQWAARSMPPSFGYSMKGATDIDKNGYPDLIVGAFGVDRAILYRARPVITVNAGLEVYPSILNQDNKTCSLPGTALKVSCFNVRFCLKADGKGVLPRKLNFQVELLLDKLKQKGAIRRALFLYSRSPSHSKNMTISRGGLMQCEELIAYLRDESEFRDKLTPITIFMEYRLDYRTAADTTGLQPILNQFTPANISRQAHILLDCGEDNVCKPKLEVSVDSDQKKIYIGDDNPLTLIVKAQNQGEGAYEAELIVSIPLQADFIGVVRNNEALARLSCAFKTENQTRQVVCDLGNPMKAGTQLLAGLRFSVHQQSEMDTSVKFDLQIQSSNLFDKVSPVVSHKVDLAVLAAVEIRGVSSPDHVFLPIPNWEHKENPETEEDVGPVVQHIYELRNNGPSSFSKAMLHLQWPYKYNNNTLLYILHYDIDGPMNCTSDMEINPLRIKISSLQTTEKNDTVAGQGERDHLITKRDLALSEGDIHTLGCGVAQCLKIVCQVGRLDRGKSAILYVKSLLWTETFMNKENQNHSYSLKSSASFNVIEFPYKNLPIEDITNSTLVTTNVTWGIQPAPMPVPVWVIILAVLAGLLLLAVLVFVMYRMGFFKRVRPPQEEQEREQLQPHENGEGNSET
T1 sequence (P05106 27-788, form in doubt, chain 2 of 2): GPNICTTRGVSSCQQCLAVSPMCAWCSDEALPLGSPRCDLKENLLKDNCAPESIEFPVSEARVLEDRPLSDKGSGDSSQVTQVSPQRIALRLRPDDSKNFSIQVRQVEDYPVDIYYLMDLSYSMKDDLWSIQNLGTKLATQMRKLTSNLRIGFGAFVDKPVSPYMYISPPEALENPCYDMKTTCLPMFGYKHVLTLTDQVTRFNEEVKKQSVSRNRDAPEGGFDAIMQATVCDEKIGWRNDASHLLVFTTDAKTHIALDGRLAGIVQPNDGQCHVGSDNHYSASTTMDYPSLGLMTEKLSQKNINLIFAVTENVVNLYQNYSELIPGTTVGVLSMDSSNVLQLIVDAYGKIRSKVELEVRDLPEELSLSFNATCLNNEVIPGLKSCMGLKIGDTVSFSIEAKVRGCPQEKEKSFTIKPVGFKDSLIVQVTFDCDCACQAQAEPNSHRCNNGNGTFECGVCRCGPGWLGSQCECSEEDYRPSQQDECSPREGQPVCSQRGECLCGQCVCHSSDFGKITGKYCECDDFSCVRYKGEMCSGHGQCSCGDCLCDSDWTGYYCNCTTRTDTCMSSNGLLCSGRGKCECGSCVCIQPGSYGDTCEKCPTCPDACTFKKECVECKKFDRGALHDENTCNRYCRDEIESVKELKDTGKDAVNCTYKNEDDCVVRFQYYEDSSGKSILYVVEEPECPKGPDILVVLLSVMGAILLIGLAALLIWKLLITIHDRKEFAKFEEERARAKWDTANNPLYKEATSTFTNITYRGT

| fold enhanced affinity over parent LM609 grafted antibody [1] [fold] | fold slower dissociation rate than parent [1] [fold] | Kd [2] [nM] | koff [2] [s⁻¹] | kon [2] [M⁻¹ s⁻¹] | fold greater affinity than parent LM609 grafted antibody [1] [fold] | fold greater association rate than parent [1] [fold] | fold greater affinity than LM609 grafted antibody Fab [1] [fold] | Binder |
| --- | --- | --- | --- | --- | --- | --- | --- | --- |
| > 50 | > 10 | 0.5 | 0.000138 | 251000 | – | – | – | LM609 grafted antibody combinatorial clone 17 (Fab, V domains shown, Fab) VH: QVQLVESGGGVVQPGRSLRLSCAASGFTFSSYDMSWVRQAPGKGLEWVAKVSSGGGSTYYLDTVQGRFTISRDNSKNTLYLQMNSLRAEDTAVYYCARHNYGSFASWGQGTTVTVSS VL: EIVLTQSPATLSLSPGERATLSCQASQSISNFLHWYQQRPGQAPRLLIRYRSQSISGIPARFSGSGSGTDFTLTISSLEPEDFAVYYCQQSGSWPHTFGGGTKVEIK |
| – | > 10 | 1.5 | 0.000316 | 215000 | 18 | – | – | LM609 grafted antibody combinatorial clone C119 (Fab, V domains shown, Fab) VH: QVQLVESGGGVVQPGRSLRLSCAASGFTFSSYDMSWVRQAPGKGLEWVAKVSSGGGSTYYPDTVQGRFTISRDNSKNTLYLQMNSLRAEDTAVYYCARHNYGSFASWGQGTTVTVSS VL: EIVLTQSPATLSLSPGERATLSCQASQSISNHLHWYQQRPGQAPRLLIRYRSQSISGIPARFSGSGSGTDFTLTISSLEPEDFAVYYCQQSNSWPHTFGGGTKVEIK |
| – | > 10 | 0.5 | 0.000135 | 266000 | – | – | – | LM609 grafted antibody combinatorial clone 56 (Fab, V domains shown, Fab) VH: QVQLVESGGGVVQPGRSLRLSCAASGFTFSSYDMSWVRQAPGKGLEWVAKVSSGGGSTYYPDTVQGRFTISRDNSKNTLYLQMNSLRAEDTAVYYCARHNYGSFASWGQGTTVTVSS VL: EIVLTQSPATLSLSPGERATLSCQASQSISNFLHWYQQRPGQAPRLLIRYRSQSISGIPARFSGSGSGTDFTLTISSLEPEDFAVYYCQQSGSWPHTFGGGTKVEIK |
| – | > 10 | 0.9 | 0.000192 | 225000 | – | – | – | LM609 grafted antibody combinatorial clone C176 (Fab, V domains shown, Fab) VH: QVQLVESGGGVVQPGRSLRLSCAASGFTFSSYDMSWVRQAPGKGLEWVAKVSSGGGSTYYPDTVQGRFTISRDNSKNTLYLQMNSLRAEDTAVYYCARHNYGSFATWGQGTTVTVSS VL: EIVLTQSPATLSLSPGERATLSCQASQSISNFLHWYQQRPGQAPRLLIRYRSQSISGIPARFSGSGSGTDFTLTISSLEPEDFAVYYCQQSGSWPHTFGGGTKVEIK |
| – | > 10 | 0.3 | 0.000147 | 448000 | 92 | – | ~90 | LM609 grafted antibody combinatorial clone C37 (Fab, V domains shown, Fab) VH: QVQLVESGGGVVQPGRSLRLSCAASGFTFSSYDMSWVRQAPGKGLEWVAKVSSGGGSTYYLDTVQGRFTISRDNSKNTLYLQMNSLRAEDTAVYYCARHNYGSFYEWGQGTTVTVSS VL: EIVLTQSPATLSLSPGERATLSCQASQSISNHLHWYQQRPGQAPRLLIRYRSQSISGIPARFSGSGSGTDFTLTISSLEPEDFAVYYCQQSGSWPLTFGGGTKVEIK |

Continued, binder first:

| Binder | fold enhanced affinity over parent LM609 grafted antibody [1] [fold] | fold slower dissociation rate than parent [1] [fold] | Kd [2] [nM] | koff [2] [s⁻¹] | kon [2] [M⁻¹ s⁻¹] | fold greater affinity than parent LM609 grafted antibody [1] [fold] | fold greater association rate than parent [1] [fold] | fold greater affinity than LM609 grafted antibody Fab [1] [fold] |
| --- | --- | --- | --- | --- | --- | --- | --- | --- |
| LM609 grafted antibody combinatorial clone 2G4 (Fab, V domains shown, Fab) VH: QVQLVESGGGVVQPGRSLRLSCAASGFTFSSYDMSWVRQAPGKGLEWVAKVSSGGGSTYYLDTVQGRFTISRDNSKNTLYLQMNSLRAEDTAVYYCARHNYGSFASWGQGTTVTVSS VL: EIVLTQSPATLSLSPGERATLSCQASQSISNHLHWYQQRPGQAPRLLIRYRSQSISGIPARFSGSGSGTDFTLTISSLEPEDFAVYYCQQSGSWPLTFGGGTKVEIK | > 50 | > 10 | 0.4 | 0.000229 | 603000 | – | – | – |
| LM609 grafted antibody combinatorial clone 6H6 (Fab, V domains shown, Fab) VH: QVQLVESGGGVVQPGRSLRLSCAASGFTFSSYDMSWVRQAPGKGLEWVAKVSSGGGSTYYLDTVQGRFTISRDNSKNTLYLQMNSLRAEDTAVYYCARHNHGSFASWGQGTTVTVSS VL: EIVLTQSPATLSLSPGERATLSCQASQSISNHLHWYQQRPGQAPRLLIRYRSQSISGIPARFSGSGSGTDFTLTISSLEPEDFAVYYCQQSGSWPLTFGGGTKVEIK | – | > 10 | 0.4 | 0.000187 | 504000 | – | – | – |
| LM609 grafted antibody combinatorial clone 6G1 (Fab, V domains shown, Fab) VH: QVQLVESGGGVVQPGRSLRLSCAASGFTFSSYDMSWVRQAPGKGLEWVAKVSSGGGSTYYPDTVQGRFTISRDNSKNTLYLQMNSLRAEDTAVYYCARHNYGSFASWGQGTTVTVSS VL: EIVLTQSPATLSLSPGERATLSCQASQSISNHLHWYQQRPGQAPRLLIRYRSQSISGIPARFSGSGSGTDFTLTISSLEPEDFAVYYCQQSGSWPLTFGGGTKVEIK | – | > 10 | 0.7 | 0.00028 | 389000 | – | 2 to 4 | – |
| LM609 grafted antibody combinatorial clone 7 (Fab, V domains shown, Fab) VH: QVQLVESGGGVVQPGRSLRLSCAASGFTFSSYDMSWVRQAPGKGLEWVAKVSSGGGSTYYPDTVQGRFTISRDNSKNTLYLQMNSLRAEDTAVYYCARHNHGSFASWGQGTTVTVSS VL: EIVLTQSPATLSLSPGERATLSCQASQSISNFLHWYQQRPGQAPRLLIRYRSQSISGIPARFSGSGSGTDFTLTISSLEPEDFAVYYCQQSGSWPHTFGGGTKVEIK | – | > 10 | 1.2 | 0.000236 | 204000 | – | – | – |
